Blank lines part the entries; values can stand above or below the substance they belong to.
Assays:
D3H44 light chain S176L [1] = experiment: LCCA (SPR), competitor L1 V133S
D3H44 light chain V133S [2] = experiment: LCCA (SPR), competitor L2 S176L
D3H44 light chain S176L [3] = experiment: LCCA: H1 co-expressed with L1 and L2, SPR read-out of light chain tags; competing chain L1
D3H44 light chain V133S [4] = experiment: LCCA: H1 co-expressed with L1 and L2, SPR read-out of light chain tags; competing chain L2
D3H44 light chain Q38E [5] = experiment: LCCA (SPR), competitor L1 Q38M
D3H44 light chain Q38M [6] = experiment: LCCA (SPR), competitor L2 Q38E
D3H44 light chain Q38E [7] = experiment: LCCA (SPR), competitor L1 Q38M; first of two ratios in the cell
D3H44 light chain Q38M [8] = experiment: LCCA (SPR), competitor L2 Q38E; first of two ratios in the cell
D3H44 light chain Q38E [9] = experiment: LCCA (SPR), competitor L1 Q38M; second of two ratios in the cell
D3H44 light chain Q38M [10] = experiment: LCCA (SPR), competitor L2 Q38E; second of two ratios in the cell
[11] = biological target: D3H44 light chain S176V_T178L; experiment: LCCA (SPR), competitor L1 WT
[12] = biological target: D3H44 light chain, wild type; experiment: LCCA (SPR), competitor L2 S176V_T178L
D3H44 light chain F98A [13] = experiment: LCCA (SPR), competitor L2 WT
D3H44 light chain F98W [14] = experiment: LCCA (SPR), competitor L1 F98A
[15] = biological target: D3H44 light chain, wild type; experiment: LCCA (SPR), competitor L1 F98A
D3H44 light chain F98A [16] = experiment: LCCA (SPR), competitor L1 P44W
D3H44 light chain F98A [17] = experiment: LCCA (SPR), competitor L1 Q38E
D3H44 light chain F98A [18] = experiment: LCCA (SPR), competitor L1 Q38R
D3H44 light chain P44W = experiment: LCCA (SPR), competitor L2 F98A
D3H44 light chain Q38E [19] = experiment: LCCA (SPR), competitor L2 F98A
D3H44 light chain Q38R = experiment: LCCA (SPR), competitor L2 F98A
D3H44 light chain F98A [20] = experiment: LCCA (SPR), competitor L2 F98W
D3H44 light chain F116A = experiment: LCCA (SPR), competitor L1 WT
D3H44 light chain F98A [21] = experiment: LCCA (SPR), competitor L1 WT
D3H44 light chain F98L [22] = experiment: LCCA (SPR), competitor L1 WT
D3H44 light chain F98W [23] = experiment: LCCA (SPR), competitor L1 F98L
D3H44 light chain F98A [24] = experiment: LCCA (SPR), competitor L1 F98W
D3H44 light chain F98W [25] = experiment: LCCA (SPR), competitor L2 F98A
D3H44 light chain F98L [26] = experiment: LCCA (SPR), competitor L2 F98W
[27] = biological target: D3H44 light chain Q124R_Q160K_T178R; experiment: LCCA: H1 co-expressed with L1 and L2, SPR read-out of light chain tags; competing chain L1
[28] = biological target: D3H44 light chain Q124E_Q160E_T178D; experiment: LCCA: H1 co-expressed with L1 and L2, SPR read-out of light chain tags; competing chain L2
D3H44 light chain S176L [29] = experiment: LCCA (SPR), competitor L2 WT
[30] = biological target: D3H44 light chain, wild type; experiment: LCCA (SPR), competitor L1 S176L
D3H44 light chain S176L [31] = experiment: LCCA: H2 co-expressed with L1 and L2, SPR read-out of light chain tags; competing chain L1
D3H44 light chain V133S [32] = experiment: LCCA: H2 co-expressed with L1 and L2, SPR read-out of light chain tags; competing chain L2

Substance: D3H44 heavy chain (Fab format) S188L_V190Y
- H1 L2 of H1 L1:H1 L2 (screen) (D3H44 light chain S176L [1]): 7.72
- H1 L2 of H1 L1:H1 L2 (verification) (D3H44 light chain S176L [1]): 12.4
- H1 L1 of H1 L1:H1 L2 (screen) (D3H44 light chain V133S [2]): 90
- H1 L1 of H1 L1:H1 L2 (verification) (D3H44 light chain V133S [2]): 81.2
- H1 Readout (H1-L2) (D3H44 light chain S176L [3]): 24
- H1 Readout (H1-L1) (D3H44 light chain V133S [4]): 83

Substance: D3H44 heavy chain (Fab format) S188I
- H1 L2 of H1 L1:H1 L2 (screen) [11]: 41.9
- H1 L1 of H1 L1:H1 L2 (screen) [12]: 61.9

Substance: D3H44 heavy chain (Fab format) V37W
- H1 L1 of H1 L1:H1 L2 (screen) (D3H44 light chain F98A [13]): 64.1
- H1 L2 of H1 L1:H1 L2 (screen) (D3H44 light chain F98W [14]): 23.5
- H1 L2 of H1 L1:H1 L2 (verification) (D3H44 light chain F98W [14]): 23.4
- H1 L2 of H1 L1:H1 L2 (screen) [15]: 28.8
- H2 L2 of H2 L2:H2 L1 (screen) (D3H44 light chain F98A [16]): 83.1
- H2 L2 of H2 L2:H2 L1 (screen) (D3H44 light chain F98A [17]): 65.9
- H2 L2 of H2 L2:H2 L1 (verification) (D3H44 light chain F98A [17]): 70.5
- H2 L2 of H2 L2:H2 L1 (screen) (D3H44 light chain F98A [18]): 48.9
- H2 L2 of H2 L2:H2 L1 (verification) (D3H44 light chain F98A [18]): 47.8
- H2 L1 of H2 L2:H2 L1 (screen) (D3H44 light chain P44W): 9.41
- H2 L1 of H2 L2:H2 L1 (screen) (D3H44 light chain Q38E [19]): 8.05
- H2 L1 of H2 L2:H2 L1 (verification) (D3H44 light chain Q38E [19]): 10.3
- H2 L1 of H2 L2:H2 L1 (screen) (D3H44 light chain Q38R): 26.8
- H2 L1 of H2 L2:H2 L1 (verification) (D3H44 light chain Q38R): 26.7
- H1 L1 of H1 L1:H1 L2 (screen) (D3H44 light chain F98A [20]): 62.4
- H1 L1 of H1 L1:H1 L2 (verification) (D3H44 light chain F98A [20]): 61.5

Substance: D3H44 heavy chain (Fab format), wild type
- H1 L2 of H1 L1:H1 L2 (screen) (D3H44 light chain F116A): 26.3
- H1 L2 of H1 L1:H1 L2 (screen) (D3H44 light chain F98A [21]): 7.5
- H1 L2 of H1 L1:H1 L2 (screen) (D3H44 light chain F98L [22]): 13.3
- H2 L2 of H2 L2:H2 L1 (screen) [11]: 99.4
- H2 L2 of H2 L2:H2 L1 (screen) (D3H44 light chain F98W [23]): 74.2
- H2 L2 of H2 L2:H2 L1 (verification) (D3H44 light chain F98W [23]): 50.8
- H1 L2 of H1 L1:H1 L2 (screen) (D3H44 light chain F98A [24]): 28.7
- H1 L2 of H1 L1:H1 L2 (verification) (D3H44 light chain F98A [24]): 28.7
- H1 L1 of H1 L1:H1 L2 (screen) (D3H44 light chain F98W [25]): 67.1
- H1 L1 of H1 L1:H1 L2 (verification) (D3H44 light chain F98W [25]): 67.1
- H2 L1 of H2 L2:H2 L1 (screen) (D3H44 light chain F98L [26]): 27.8
- H2 L1 of H2 L2:H2 L1 (verification) (D3H44 light chain F98L [26]): 23.6

Substance: D3H44 heavy chain (Fab format) F174V_P175S_S188G
- H1 L1 of H1 L1:H1 L2 (screen) (D3H44 light chain S176L [29]): 53.4
- H1 L2 of H1 L1:H1 L2 (screen) [30]: 9.68
- H2 L2 of H2 L2:H2 L1 (screen) (D3H44 light chain S176L [1]): 81.1
- H2 L2 of H2 L2:H2 L1 (verification) (D3H44 light chain S176L [1]): 68.1
- H2 L1 of H2 L2:H2 L1 (screen) (D3H44 light chain V133S [2]): 1.44
- H2 L1 of H2 L2:H2 L1 (verification) (D3H44 light chain V133S [2]): 2.9
- H2 Readout (H2-L2) (D3H44 light chain S176L [31]): 98
- H2 Readout (H2-L1) (D3H44 light chain V133S [32]): 1

Second part, the substance after the results:

- H1 L2 of H1 L1:H1 L2 (screen) (D3H44 light chain Q38E [5]): 33.3
- H1 L1 of H1 L1:H1 L2 (screen) (D3H44 light chain Q38M [6]): 69.6
- H1 L2 of H1 L1:H1 L2 (verification) (D3H44 light chain Q38E [7]): 31.3
- H1 L1 of H1 L1:H1 L2 (verification) (D3H44 light chain Q38M [8]): 60.2
- H1 L2 of H1 L1:H1 L2 (verification) (D3H44 light chain Q38E [9]): 40.6
- H1 L1 of H1 L1:H1 L2 (verification) (D3H44 light chain Q38M [10]): 58.8
Substance: D3H44 heavy chain (Fab format) Q39M

- H1 Readout (H1-L2) [27]: 1
- H1 Readout (H1-L1) [28]: 84
Substance: D3H44 heavy chain (Fab format) D146G_S186R

— patent publication US20190085055A1
